Results: the Human Domainome abundance scans (Beltran et al. 2025)
± gives the uncertainty stated by the source.

B1: Kinesin-like protein KIF16B, residues 1213 to 1273; numbered along this chain, Q96L93 (parent)
chain: ETWTVFRRYSRFREMHKTLKLKYAELAALEFPPKKLFGNKDERVIAERRSHLEKYLRDFFS

Variants of: B1
Assay: abundance fitness (aPCA) (normalised: wild type 0, dead -1); higher = more abundant; growth selection in yeast, the domain comes from the species named
Conditions: Homo sapiens

Variant	abundance fitness
A27F	-0.215 ± 0.32
A27S	-0.099 ± 0.069
A27R	0.245 ± 0.053
A27D	-0.388 ± 0.11
A27G	-0.293 ± 0.047
A27C	0.099 ± 0.087
A27L	-0.02 ± 0.061
Y23Q	-0.393 ± 0.099
Y23M	0.051 ± 0.14
Y23I	-0.034 ± 0.16
Y23L	0.279 ± 0.069
Y23W	0.177 ± 0.062
Y23T	-0.379 ± 0.14
Y23H	-0.128 ± 0.26
Y23C	0.167 ± 0.078
Y23R	-0.726 ± 0.094
Y23A	0.068 ± 0.076
Y23K	-0.803 ± 0.28
Y23V	0.39 ± 0.092
Y23P	-1.06 ± 0.28
Y23E	-0.897 ± 0.14
Y23G	-0.42 ± 0.086
Y23S	-0.528 ± 0.15
Y23F	0.296 ± 0.13

Variant	abundance fitness
R8L	0.317 ± 0.041
R8N	-0.31 ± 0.36
R8T	0.005 ± 0.079
R8W	0.02 ± 0.086
R8Q	0.057 ± 0.087
R8S	0.12 ± 0.04
R8P	-0.092 ± 0.047
R8M	0.284 ± 0.066
R8Y	0.048 ± 0.07
R8V	0.26 ± 0.063
Y9V	0.019 ± 0.059
Y9K	-0.056 ± 0.073
Y9C	0.123 ± 0.091
Y9T	-0.201 ± 0.11
Y9G	0.245 ± 0.042
Y9A	-0.119 ± 0.08
Y9W	0.076 ± 0.06
Y9M	0.163 ± 0.048
Y9N	0.091 ± 0.34
Y9R	-0.27 ± 0.054
Y9P	0.129 ± 0.11
Y9E	-0.858 ± 0.19
Y9L	0.063 ± 0.098
Y9I	0.156 ± 0.16

Variant	abundance fitness
Y9Q	-0.446 ± 0.15
Y9S	0.055 ± 0.06
T18K	-0.056 ± 0.13
T18L	-0.247 ± 0.076
T18E	-0.223 ± 0.072
T18Y	0.508 ± 0.29
T18V	-0.038 ± 0.1
T18W	0.472 ± 0.073
T18S	-0.133 ± 0.076
T18N	-0.514 ± 0.23
T18D	-0.806 ± 0.16
T18H	-0.463 ± 0.37
T18G	-0.237 ± 0.077
T18A	0.176 ± 0.087
T18C	-0.143 ± 0.1
T18M	-0.06 ± 0.067
T18R	-0.222 ± 0.086
L29C	-0.228 ± 0.14
L29V	-0.033 ± 0.063
L29R	-0.192 ± 0.053
L29I	0.427 ± 0.22
L29H	-0.38 ± 0.41
L29M	0.337 ± 0.063
L29W	0.223 ± 0.052

Variant	abundance fitness
L29S	-0.513 ± 0.11
L29K	-0.226 ± 0.08
L29Y	-0.31 ± 0.32
L29F	-0.188 ± 0.25
L29T	-0.132 ± 0.073
L29E	-0.883 ± 0.12
L29A	0.172 ± 0.07
S10P	0.135 ± 0.074
S10R	-0.395 ± 0.081
S10E	-0.758 ± 0.14
S10L	-0.007 ± 0.074
S10H	-1.1 ± 0.48
S10K	-0.317 ± 0.19
S10W	-0.018 ± 0.061
S10Y	-0.567 ± 0.13
S10D	-0.224 ± 0.22
S10T	0.136 ± 0.069
S10C	0.208 ± 0.13
S10I	-0.229 ± 0.11
S10A	-0.095 ± 0.065
S10V	-0.167 ± 0.06
S10Q	-0.419 ± 0.13
S10F	0.099 ± 0.062
R13Q	-0.398 ± 0.16

Variant	abundance fitness
R13L	-0.108 ± 0.12
R13C	-0.333 ± 0.18
R13T	-0.056 ± 0.065
R13N	-0.265 ± 0.21
R13K	0.1 ± 0.079
R13D	0.391 ± 0.15
R13Y	-0.079 ± 0.25
R13A	0.096 ± 0.1
R13M	-0.153 ± 0.37
R13G	0.023 ± 0.04
R13W	-0.213 ± 0.072
R13E	-0.354 ± 0.1
R13S	-0.137 ± 0.083
R13V	-0.443 ± 0.073
K20G	-0.676 ± 0.11
K20Y	-1 ± 0.26
K20P	-0.904 ± 0.21
K20N	-1.01 ± 0.24
K20A	-0.632 ± 0.1
K20H	-0.421 ± 0.41
K20M	-0.746 ± 0.15
K20Q	-0.411 ± 0.17
K20V	-0.853 ± 0.096
K20L	-0.671 ± 0.097

Variant	abundance fitness
K20W	-0.734 ± 0.18
K20R	-0.211 ± 0.059
K20E	-1.02 ± 0.19
K20C	-0.574 ± 0.27
K20D	-0.945 ± 0.24
E30I	0.539 ± 0.079
E30A	0.169 ± 0.052
E30L	0.476 ± 0.039
E30N	0.071 ± 0.096
E30Q	0.036 ± 0.093
E30D	0.08 ± 0.068
E30K	-0.033 ± 0.084
E30M	0.347 ± 0.072
E30G	0.153 ± 0.046
E30H	-0.212 ± 0.11
E30R	0.018 ± 0.058
E30S	0.151 ± 0.065
A28W	-0.177 ± 0.11
A28T	0.009 ± 0.08
A28F	-0.116 ± 0.34
A28V	-0.912 ± 0.18
A28R	-0.036 ± 0.053
A28S	-0.129 ± 0.1
A28K	-0.094 ± 0.17

Variant	abundance fitness
A28I	-0.311 ± 0.49
A28M	-0.433 ± 0.16
A28C	-0.156 ± 0.13
A28P	-0.424 ± 0.11
A28Y	-1.03 ± 0.39
A28G	-0.101 ± 0.072
H16C	0.016 ± 0.12
H16E	-0.842 ± 0.27
H16T	0.144 ± 0.058
H16D	-0.835 ± 0.18
H16F	-0.044 ± 0.14
H16W	0.534 ± 0.051
H16L	0.379 ± 0.039
H16A	0.135 ± 0.047
H16I	0.452 ± 0.11
H16Q	-0.194 ± 0.083
H16Y	0.167 ± 0.089
H16M	0.311 ± 0.061
H16K	0.062 ± 0.17
H16S	-0.083 ± 0.058
H16V	0.342 ± 0.053
H16N	-0.353 ± 0.31
H16R	-0.073 ± 0.046
